Experimental data published in paper doi:10.1101/2025.05.11.653314.

Target: U. parvum Smc (Ureaplasma parvum)
Assay: cross-linking

stoichiometry N: 2
Substance: U. parvum Smc (enzyme)
